# Experimental data from patent US7432061B2, “Assays for measuring matrix metalloproteinase activities” (BioZyme, Inc., priority 2002, dated 2008).
# Biological target: gelatinase B (Homo sapiens, UniProt P14780)
# Assay: Inhibition with type II collagen, FlSub3 cleavage
# Type: biochemical
# Details: for Improvement In Selectivity (Gel-B v Col-3): 44 ug/ml Type II Collagen vs no Type II Collagen, FlSb3; for Average Percent Inhibition from 1.1 to 6.6 Hours / Average Percent Inhibition: GELB(.008 nM)
# Chain of gelatinase B (P14780 94-707): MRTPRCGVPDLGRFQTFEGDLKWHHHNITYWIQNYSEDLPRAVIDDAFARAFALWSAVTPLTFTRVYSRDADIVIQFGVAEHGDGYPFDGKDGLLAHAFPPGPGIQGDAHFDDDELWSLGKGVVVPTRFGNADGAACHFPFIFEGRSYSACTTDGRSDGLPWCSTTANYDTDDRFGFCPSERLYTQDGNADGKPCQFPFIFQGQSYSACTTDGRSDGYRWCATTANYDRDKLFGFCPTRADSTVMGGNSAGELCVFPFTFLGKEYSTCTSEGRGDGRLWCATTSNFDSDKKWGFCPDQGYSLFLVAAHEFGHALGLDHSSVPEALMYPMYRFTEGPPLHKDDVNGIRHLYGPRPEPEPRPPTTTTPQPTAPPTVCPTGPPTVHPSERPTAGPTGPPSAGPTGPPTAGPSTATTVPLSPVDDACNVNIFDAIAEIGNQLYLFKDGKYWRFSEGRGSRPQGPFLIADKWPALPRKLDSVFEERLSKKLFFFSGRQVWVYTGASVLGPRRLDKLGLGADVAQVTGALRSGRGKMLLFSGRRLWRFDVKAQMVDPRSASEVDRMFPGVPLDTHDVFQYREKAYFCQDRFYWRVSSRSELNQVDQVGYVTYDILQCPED
substance,measurement,setting,value
"Type II Collagen: bovine type II collagen, full length MMP substrate used as inhibitor of gelatinases",Improvement In Selectivity (Gel-B v Col-3),,46 fold
same,Improvement In Selectivity (Gel-B v Col-3),listed as collagen,approximately 80 fold
same,Average Percent Inhibition from 1.1 to 6.6 Hours,Type II Collagen 0.18 ug/ml,9%
same,Average Percent Inhibition from 1.1 to 6.6 Hours,Type II Collagen 0.54 ug/ml,9%
same,Average Percent Inhibition from 1.1 to 6.6 Hours,Type II Collagen 1.63 ug/ml,12%
same,Average Percent Inhibition from 1.1 to 6.6 Hours,Type II Collagen 4.89 ug/ml,38%
same,Average Percent Inhibition from 1.1 to 6.6 Hours,Type II Collagen 14.67 ug/ml,65%
same,Average Percent Inhibition from 1.1 to 6.6 Hours,Type II Collagen 44.00 ug/ml,84%
same,Average Percent Inhibition,"TypeIICOL(1.6 ug/ul), FISb3, hour 0.10 to 1.10",−28%
same,Average Percent Inhibition,"TypeIICOL(1.6 ug/ul), FISb3, hour 1.10 to 2.10",14%
same,Average Percent Inhibition,"TypeIICOL(1.6 ug/ul), FISb3, hour 1.10 to 6.60",12%
same,Average Percent Inhibition,"TypeIICOL(1.6 ug/ul), FISb3, hour 2.10 to 3.10",19%
same,Average Percent Inhibition,"TypeIICOL(1.6 ug/ul), FISb3, hour 3.10 to 4.10",15%
same,Average Percent Inhibition,"TypeIICOL(1.6 ug/ul), FISb3, hour 4.10 to 5.10",11%
same,Average Percent Inhibition,"TypeIICOL(1.6 ug/ul), FISb3, hour 5.10 to 6.10",7%
same,Average Percent Inhibition,"TypeIICOL(4.9 ug/ul), FISb3, hour 0.10 to 1.10",35%
same,Average Percent Inhibition,"TypeIICOL(4.9 ug/ul), FISb3, hour 1.10 to 2.10",43%
same,Average Percent Inhibition,"TypeIICOL(4.9 ug/ul), FISb3, hour 1.10 to 6.60",38%
same,Average Percent Inhibition,"TypeIICOL(4.9 ug/ul), FISb3, hour 2.10 to 3.10",47%
same,Average Percent Inhibition,"TypeIICOL(4.9 ug/ul), FISb3, hour 3.10 to 4.10",41%
same,Average Percent Inhibition,"TypeIICOL(4.9 ug/ul), FISb3, hour 4.10 to 5.10",35%
same,Average Percent Inhibition,"TypeIICOL(4.9 ug/ul), FISb3, hour 5.10 to 6.10",30%
same,Average Percent Inhibition,"TypeIICOL(15 ug/ul), FISb3, hour 0.10 to 1.10",57%
same,Average Percent Inhibition,"TypeIICOL(15 ug/ul), FISb3, hour 1.10 to 2.10",67%
same,Average Percent Inhibition,"TypeIICOL(15 ug/ul), FISb3, hour 1.10 to 6.60",65%
same,Average Percent Inhibition,"TypeIICOL(15 ug/ul), FISb3, hour 2.10 to 3.10",72%
same,Average Percent Inhibition,"TypeIICOL(15 ug/ul), FISb3, hour 3.10 to 4.10",69%
same,Average Percent Inhibition,"TypeIICOL(15 ug/ul), FISb3, hour 4.10 to 5.10",64%
same,Average Percent Inhibition,"TypeIICOL(15 ug/ul), FISb3, hour 5.10 to 6.10",59%
same,Average Percent Inhibition,"TypeIICOL(44 ug/ul), FISb3, hour 0.10 to 1.10",41%
same,Average Percent Inhibition,"TypeIICOL(44 ug/ul), FISb3, hour 1.10 to 2.10",82%
same,Average Percent Inhibition,"TypeIICOL(44 ug/ul), FISb3, hour 1.10 to 6.60",84%
same,Average Percent Inhibition,"TypeIICOL(44 ug/ul), FISb3, hour 2.10 to 3.10",87%
same,Average Percent Inhibition,"TypeIICOL(44 ug/ul), FISb3, hour 3.10 to 4.10",87%
same,Average Percent Inhibition,"TypeIICOL(44 ug/ul), FISb3, hour 4.10 to 5.10",85%
same,Average Percent Inhibition,"TypeIICOL(44 ug/ul), FISb3, hour 5.10 to 6.10",83%
same,Average Percent Inhibition,"TypeIICOL(.18 ug/ul), FISb3, hour 0.10 to 1.10",3%
same,Average Percent Inhibition,"TypeIICOL(.18 ug/ul), FISb3, hour 1.10 to 2.10",12%
same,Average Percent Inhibition,"TypeIICOL(.18 ug/ul), FISb3, hour 1.10 to 6.60",9%
same,Average Percent Inhibition,"TypeIICOL(.18 ug/ul), FISb3, hour 2.10 to 3.10",11%
same,Average Percent Inhibition,"TypeIICOL(.18 ug/ul), FISb3, hour 3.10 to 4.10",9%
same,Average Percent Inhibition,"TypeIICOL(.18 ug/ul), FISb3, hour 4.10 to 5.10",7%
same,Average Percent Inhibition,"TypeIICOL(.18 ug/ul), FISb3, hour 5.10 to 6.10",5%
same,Average Percent Inhibition,"TypeIICOL(.55 ug/ul), FISb3, hour 0.10 to 1.10",3%
same,Average Percent Inhibition,"TypeIICOL(.55 ug/ul), FISb3, hour 1.10 to 2.10",10%
same,Average Percent Inhibition,"TypeIICOL(.55 ug/ul), FISb3, hour 1.10 to 6.60",9%
same,Average Percent Inhibition,"TypeIICOL(.55 ug/ul), FISb3, hour 2.10 to 3.10",12%
same,Average Percent Inhibition,"TypeIICOL(.55 ug/ul), FISb3, hour 3.10 to 4.10",10%
same,Average Percent Inhibition,"TypeIICOL(.55 ug/ul), FISb3, hour 4.10 to 5.10",8%
same,Average Percent Inhibition,"TypeIICOL(.55 ug/ul), FISb3, hour 5.10 to 6.10",6%
same,inhibition of gelatinase B by type II collagen,"highest concentration (44 ug/ml), six hour time course, FlSub3",Almost complete inhibition
